# Test results from paper PMC9482650, “Quantitative fragmentomics allow affinity mapping of interactomes” (Nature Communications, 2022).
# Positions count from the first letter of the chain named.
# T1: PDZRN3_1, Q9UPQ7
# T1 sequence (Q9UPQ7 244-349, limits assumed, looked up): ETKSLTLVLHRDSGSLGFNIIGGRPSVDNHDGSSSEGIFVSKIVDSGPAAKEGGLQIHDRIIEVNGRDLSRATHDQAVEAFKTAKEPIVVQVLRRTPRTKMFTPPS
# T2: DLG3_2, Q92796
# T2 sequence (Q92796 221-321, limits assumed, looked up): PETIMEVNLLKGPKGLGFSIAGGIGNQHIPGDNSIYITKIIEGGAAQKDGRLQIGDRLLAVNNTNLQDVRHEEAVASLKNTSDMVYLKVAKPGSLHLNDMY
# T3: DFNB31_2, Q9P202
# T3 sequence (Q9P202 274-371, limits assumed, looked up): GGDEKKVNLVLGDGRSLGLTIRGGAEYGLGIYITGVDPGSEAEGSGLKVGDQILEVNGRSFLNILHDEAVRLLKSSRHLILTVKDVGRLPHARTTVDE
# T4: LIN7C, Q9NUP9
# T4 sequence (Q9NUP9 88-185, limits assumed, looked up): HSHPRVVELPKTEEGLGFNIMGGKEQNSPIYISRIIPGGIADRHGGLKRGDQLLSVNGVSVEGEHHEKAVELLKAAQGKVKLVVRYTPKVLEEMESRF
# T5: LIN7B, Q9HAP6
# T5 sequence (Q9HAP6 88-185, limits assumed, looked up): T4 sequence (Q9NUP9 88-185, limits assumed, looked up) with S2A, E13D, I35V, I40V, H65Q, K79S, K89R, S96A
# T6: APBA1_1, Q02410
# T6 sequence (Q02410 651-752, limits assumed, looked up): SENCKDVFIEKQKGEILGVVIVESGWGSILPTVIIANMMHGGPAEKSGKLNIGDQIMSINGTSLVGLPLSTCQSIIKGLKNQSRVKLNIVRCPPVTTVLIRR
# T7: MPP7, Q5T2T1
# T7 sequence (Q5T2T1 134-230, limits assumed, looked up): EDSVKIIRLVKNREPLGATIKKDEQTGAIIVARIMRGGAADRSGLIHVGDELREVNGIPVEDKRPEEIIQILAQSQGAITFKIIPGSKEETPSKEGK
# T8: HTRA3, P83110
# T8 sequence (P83110 354-453, limits assumed, looked up): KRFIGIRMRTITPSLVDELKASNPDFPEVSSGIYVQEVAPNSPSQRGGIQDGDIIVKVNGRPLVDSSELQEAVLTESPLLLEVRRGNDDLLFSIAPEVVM
# T9: GRIP1_4, Q9Y3R0
# T9 sequence (Q9Y3R0 467-571, limits assumed, looked up): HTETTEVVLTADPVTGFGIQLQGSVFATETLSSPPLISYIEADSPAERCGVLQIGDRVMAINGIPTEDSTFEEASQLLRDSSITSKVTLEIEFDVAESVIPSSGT
# T10: GRIP1_3, Q9Y3R0
# T10 sequence (Q9Y3R0 247-346, limits assumed, looked up): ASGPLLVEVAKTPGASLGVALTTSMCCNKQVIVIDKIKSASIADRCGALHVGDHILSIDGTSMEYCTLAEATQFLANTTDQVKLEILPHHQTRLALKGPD
# T11: ARHGAP21, Q5T5U3
# T11 sequence (Q5T5U3 45-169, limits assumed, looked up): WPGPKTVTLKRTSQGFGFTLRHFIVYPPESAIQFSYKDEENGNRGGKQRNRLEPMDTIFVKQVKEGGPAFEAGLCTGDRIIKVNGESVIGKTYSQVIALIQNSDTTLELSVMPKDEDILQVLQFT
# Biological target: MAGI2_4, Q86UL8
# Sequence (Q86UL8 772-865): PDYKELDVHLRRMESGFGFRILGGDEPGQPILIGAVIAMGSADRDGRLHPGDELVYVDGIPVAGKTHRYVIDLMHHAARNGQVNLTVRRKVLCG
# Assay: holdup assay
# Design: key: below the threshold = too weak to quantify, mostly under pKd 3.1 to 4
# Conditions: plain residues with an end cap or a label only (N-terminal biotin on a linker: ado-ado)
row,pKd,Binder
1,below the threshold,"DDENIRTSDV [PLEKHA2, Q9HB19]"
2,4.4,"TACCHSETVV [TGFA, P01135]"

# Biological target: T1, PDZRN3_1, Q9UPQ7
# Assay: holdup assay
# Design: key: below the threshold = too weak to quantify, mostly under pKd 3.1 to 4
# Conditions: plain residues with an end cap or a label only (N-terminal biotin on a linker: ado-ado)
row,pKd,Binder
1,below the threshold,"DDENIRTSDV [PLEKHA2, Q9HB19]"
2,3.78,"TACCHSETVV [TGFA, P01135]"

# Biological target: LNX1_1, Q8TBB1
# Sequence (Q8TBB1 261-371): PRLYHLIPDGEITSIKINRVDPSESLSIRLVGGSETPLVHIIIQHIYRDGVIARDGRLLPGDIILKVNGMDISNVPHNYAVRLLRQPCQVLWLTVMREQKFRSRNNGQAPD
# Assay: holdup assay
# Design: key: below the threshold = too weak to quantify, mostly under pKd 3.1 to 4
# Conditions: plain residues with an end cap or a label only (N-terminal biotin on a linker: ado-ado)
row,pKd,Binder
1,4.5,"DDENIRTSDV [PLEKHA2, Q9HB19]"
2,4.12,"TACCHSETVV [TGFA, P01135]"

# Biological target: T2, DLG3_2, Q92796
# Assay: holdup assay
# Design: key: below the threshold = too weak to quantify, mostly under pKd 3.1 to 4
# Conditions: plain residues with an end cap or a label only (N-terminal biotin on a linker: ado-ado)
row,pKd,Binder
1,4.38,"DDENIRTSDV [PLEKHA2, Q9HB19]"
2,4.74,"TACCHSETVV [TGFA, P01135]"

# Biological target: GRID2IP_1, A4D2P6
# Sequence (A4D2P6 1-87): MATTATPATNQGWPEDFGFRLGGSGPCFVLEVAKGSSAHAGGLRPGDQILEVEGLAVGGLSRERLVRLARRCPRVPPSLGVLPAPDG
# Assay: holdup assay
# Design: key: below the threshold = too weak to quantify, mostly under pKd 3.1 to 4
# Conditions: plain residues with an end cap or a label only (N-terminal biotin on a linker: ado-ado)
row,pKd,Binder
1,below the threshold,"DDENIRTSDV [PLEKHA2, Q9HB19]"
2,below the threshold,"TACCHSETVV [TGFA, P01135]"

# Biological target: GRIP2_5, Q9C0E4
# Sequence (Q9C0E4 544-642): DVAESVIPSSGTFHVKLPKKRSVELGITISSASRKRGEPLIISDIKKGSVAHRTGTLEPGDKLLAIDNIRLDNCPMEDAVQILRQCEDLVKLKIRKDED
# Assay: holdup assay
# Design: key: below the threshold = too weak to quantify, mostly under pKd 3.1 to 4
# Conditions: plain residues with an end cap or a label only (N-terminal biotin on a linker: ado-ado)
row,pKd,Binder
1,below the threshold,"DDENIRTSDV [PLEKHA2, Q9HB19]"
2,below the threshold,"TACCHSETVV [TGFA, P01135]"

# Biological target: GORASP2, Q9H8Y8
# Assay: holdup assay
# Design: key: below the threshold = too weak to quantify, mostly under pKd 3.1 to 4
# Conditions: plain residues with an end cap or a label only (N-terminal biotin on a linker: ado-ado)
row,pKd,Binder
1,below the threshold,"DDENIRTSDV [PLEKHA2, Q9HB19]"
2,4.05,"TACCHSETVV [TGFA, P01135]"

# Biological target: Inadl_2, Q8NI35
# Sequence (Q8NI35 238-335): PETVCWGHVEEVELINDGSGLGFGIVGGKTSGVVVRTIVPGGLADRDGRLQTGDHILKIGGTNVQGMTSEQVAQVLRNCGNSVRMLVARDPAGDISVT
# Assay: holdup assay
# Design: key: below the threshold = too weak to quantify, mostly under pKd 3.1 to 4
# Conditions: plain residues with an end cap or a label only (N-terminal biotin on a linker: ado-ado)
row,pKd,Binder
1,below the threshold,"DDENIRTSDV [PLEKHA2, Q9HB19]"
2,below the threshold,"TACCHSETVV [TGFA, P01135]"

# Biological target: DLG4_1, P78352
# Sequence (P78352 62-152): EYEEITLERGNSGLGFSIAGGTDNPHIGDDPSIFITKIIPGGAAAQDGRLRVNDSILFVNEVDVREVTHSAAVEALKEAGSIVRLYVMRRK
# Assay: holdup assay
# Design: key: below the threshold = too weak to quantify, mostly under pKd 3.1 to 4
# Conditions: plain residues with an end cap or a label only (N-terminal biotin on a linker: ado-ado)
row,pKd,Binder
1,3.69,"DDENIRTSDV [PLEKHA2, Q9HB19]"
2,4.75,"TACCHSETVV [TGFA, P01135]"

# Biological target: GIPC2, Q8TF65
# Sequence (Q8TF65 112-203): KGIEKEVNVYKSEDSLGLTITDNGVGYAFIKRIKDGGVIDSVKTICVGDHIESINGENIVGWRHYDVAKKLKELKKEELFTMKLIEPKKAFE
# Assay: holdup assay
# Design: key: below the threshold = too weak to quantify, mostly under pKd 3.1 to 4
# Conditions: plain residues with an end cap or a label only (N-terminal biotin on a linker: ado-ado)
row,pKd,Binder
1,3.84,"DDENIRTSDV [PLEKHA2, Q9HB19]"
2,below the threshold,"TACCHSETVV [TGFA, P01135]"

# Biological target: NHERF4_2, Q86UT5
# Sequence (Q86UT5 220-308): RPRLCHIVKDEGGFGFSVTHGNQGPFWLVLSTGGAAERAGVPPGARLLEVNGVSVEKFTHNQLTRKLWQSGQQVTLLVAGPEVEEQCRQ
# Assay: holdup assay
# Design: key: below the threshold = too weak to quantify, mostly under pKd 3.1 to 4
# Conditions: plain residues with an end cap or a label only (N-terminal biotin on a linker: ado-ado)
row,pKd,Binder
1,below the threshold,"DDENIRTSDV [PLEKHA2, Q9HB19]"
2,below the threshold,"TACCHSETVV [TGFA, P01135]"

# Biological target: T3, DFNB31_2, Q9P202
# Assay: holdup assay
# Design: key: below the threshold = too weak to quantify, mostly under pKd 3.1 to 4
# Conditions: plain residues with an end cap or a label only (N-terminal biotin on a linker: ado-ado)
row,pKd,Binder
1,below the threshold,"DDENIRTSDV [PLEKHA2, Q9HB19]"
2,below the threshold,"TACCHSETVV [TGFA, P01135]"

# Biological target: FRMPD3, Q5JV73
# Sequence (Q5JV73 12-100): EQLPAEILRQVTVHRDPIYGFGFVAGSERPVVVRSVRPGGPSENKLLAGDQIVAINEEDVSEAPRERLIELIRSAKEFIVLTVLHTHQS
# Assay: holdup assay
# Design: key: below the threshold = too weak to quantify, mostly under pKd 3.1 to 4
# Conditions: plain residues with an end cap or a label only (N-terminal biotin on a linker: ado-ado)
row,pKd,Binder
1,below the threshold,"DDENIRTSDV [PLEKHA2, Q9HB19]"
2,below the threshold,"TACCHSETVV [TGFA, P01135]"

# Biological target: T4, LIN7C, Q9NUP9
# Assay: holdup assay
# Design: key: below the threshold = too weak to quantify, mostly under pKd 3.1 to 4
# Conditions: plain residues with an end cap or a label only (N-terminal biotin on a linker: ado-ado)
row,pKd,Binder
1,below the threshold,"DDENIRTSDV [PLEKHA2, Q9HB19]"
2,below the threshold,"TACCHSETVV [TGFA, P01135]"

# Biological target: T5, LIN7B, Q9HAP6
# Assay: holdup assay
# Design: key: below the threshold = too weak to quantify, mostly under pKd 3.1 to 4
# Conditions: plain residues with an end cap or a label only (N-terminal biotin on a linker: ado-ado)
row,pKd,Binder
1,below the threshold,"DDENIRTSDV [PLEKHA2, Q9HB19]"
2,below the threshold,"TACCHSETVV [TGFA, P01135]"

# Biological target: T6, APBA1_1, Q02410
# Assay: holdup assay
# Design: key: below the threshold = too weak to quantify, mostly under pKd 3.1 to 4
# Conditions: plain residues with an end cap or a label only (N-terminal biotin on a linker: ado-ado)
row,pKd,Binder
1,below the threshold,"DDENIRTSDV [PLEKHA2, Q9HB19]"
2,below the threshold,"TACCHSETVV [TGFA, P01135]"

# Biological target: MAGI2_3, Q86UL8
# Sequence (Q86UL8 600-682): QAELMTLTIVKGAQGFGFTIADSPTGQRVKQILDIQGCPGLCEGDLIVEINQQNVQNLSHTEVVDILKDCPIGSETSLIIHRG
# Assay: holdup assay
# Design: key: below the threshold = too weak to quantify, mostly under pKd 3.1 to 4
# Conditions: plain residues with an end cap or a label only (N-terminal biotin on a linker: ado-ado)
row,pKd,Binder
1,below the threshold,"DDENIRTSDV [PLEKHA2, Q9HB19]"
2,below the threshold,"TACCHSETVV [TGFA, P01135]"

# Biological target: T7, MPP7, Q5T2T1
# Assay: holdup assay
# Design: key: below the threshold = too weak to quantify, mostly under pKd 3.1 to 4
# Conditions: plain residues with an end cap or a label only (N-terminal biotin on a linker: ado-ado)
row,pKd,Binder
1,below the threshold,"DDENIRTSDV [PLEKHA2, Q9HB19]"
2,below the threshold,"TACCHSETVV [TGFA, P01135]"

# Biological target: GORASP1, Q9BQQ3
# Sequence (Q9BQQ3 1-208): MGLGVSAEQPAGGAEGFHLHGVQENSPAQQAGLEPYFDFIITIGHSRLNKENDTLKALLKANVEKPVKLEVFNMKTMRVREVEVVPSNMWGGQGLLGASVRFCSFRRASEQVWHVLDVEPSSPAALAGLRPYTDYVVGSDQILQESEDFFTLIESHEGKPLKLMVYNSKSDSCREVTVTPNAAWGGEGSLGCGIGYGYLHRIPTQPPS
# Assay: holdup assay
# Design: key: below the threshold = too weak to quantify, mostly under pKd 3.1 to 4
# Conditions: plain residues with an end cap or a label only (N-terminal biotin on a linker: ado-ado)
row,pKd,Binder
1,below the threshold,"DDENIRTSDV [PLEKHA2, Q9HB19]"
2,3.67,"TACCHSETVV [TGFA, P01135]"

# Biological target: T8, HTRA3, P83110
# Assay: holdup assay
# Design: key: below the threshold = too weak to quantify, mostly under pKd 3.1 to 4
# Conditions: plain residues with an end cap or a label only (N-terminal biotin on a linker: ado-ado)
row,pKd,Binder
1,below the threshold,"DDENIRTSDV [PLEKHA2, Q9HB19]"
2,below the threshold,"TACCHSETVV [TGFA, P01135]"

# Biological target: T9, GRIP1_4, Q9Y3R0
# Assay: holdup assay
# Design: key: below the threshold = too weak to quantify, mostly under pKd 3.1 to 4
# Conditions: plain residues with an end cap or a label only (N-terminal biotin on a linker: ado-ado)
row,pKd,Binder
1,below the threshold,"DDENIRTSDV [PLEKHA2, Q9HB19]"
2,below the threshold,"TACCHSETVV [TGFA, P01135]"

# Biological target: T10, GRIP1_3, Q9Y3R0
# Assay: holdup assay
# Design: key: below the threshold = too weak to quantify, mostly under pKd 3.1 to 4
# Conditions: plain residues with an end cap or a label only (N-terminal biotin on a linker: ado-ado)
row,pKd,Binder
1,below the threshold,"DDENIRTSDV [PLEKHA2, Q9HB19]"
2,below the threshold,"TACCHSETVV [TGFA, P01135]"

# Biological target: FRMPD4, Q14CM0
# Sequence (Q14CM0 67-160): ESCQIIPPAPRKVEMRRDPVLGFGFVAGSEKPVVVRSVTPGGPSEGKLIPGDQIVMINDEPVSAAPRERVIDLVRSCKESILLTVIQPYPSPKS
# Assay: holdup assay
# Design: key: below the threshold = too weak to quantify, mostly under pKd 3.1 to 4
# Conditions: plain residues with an end cap or a label only (N-terminal biotin on a linker: ado-ado)
row,pKd,Binder
1,below the threshold,"DDENIRTSDV [PLEKHA2, Q9HB19]"
2,below the threshold,"TACCHSETVV [TGFA, P01135]"

# Biological target: T11, ARHGAP21, Q5T5U3
# Assay: holdup assay
# Design: key: below the threshold = too weak to quantify, mostly under pKd 3.1 to 4
# Conditions: plain residues with an end cap or a label only (N-terminal biotin on a linker: ado-ado)
row,pKd,Binder
1,4.37,"DDENIRTSDV [PLEKHA2, Q9HB19]"
2,4.08,"TACCHSETVV [TGFA, P01135]"

# Biological target: CASK, O14936
# Sequence (O14936 487-570): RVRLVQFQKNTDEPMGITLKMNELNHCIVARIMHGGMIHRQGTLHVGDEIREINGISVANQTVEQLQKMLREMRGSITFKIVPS
# Assay: holdup assay
# Design: key: below the threshold = too weak to quantify, mostly under pKd 3.1 to 4
# Conditions: plain residues with an end cap or a label only (N-terminal biotin on a linker: ado-ado)
row,pKd,Binder
1,below the threshold,"DDENIRTSDV [PLEKHA2, Q9HB19]"
2,below the threshold,"TACCHSETVV [TGFA, P01135]"
